Consider one molecule from patent US20050191706A1.

One test addresses Lβ11H, Dβ57A. Description: flow. To be noted: chains peptide; modification not given.
The next test has as its target Lβ26F. Description: flow. Conditions: chains peptide; modification not given.

Turning to PKYVKQNTLKLAT [bio-HA308-316], the Kd (usually the free concentration of one partner at which half of the binding sites on the other are occupied at equilibrium, for simple one-to-one binding) with Lβ11H, Dβ57A came out at 8.56 µM; with Lβ26F, 3.72 µM.
